Laboratory results published in article PMC5228287 (Food chemistry, 2016).

T1: pancreatic lipase (Sus scrofa, UniProt P00591)
T1 sequence (P00591 1-450): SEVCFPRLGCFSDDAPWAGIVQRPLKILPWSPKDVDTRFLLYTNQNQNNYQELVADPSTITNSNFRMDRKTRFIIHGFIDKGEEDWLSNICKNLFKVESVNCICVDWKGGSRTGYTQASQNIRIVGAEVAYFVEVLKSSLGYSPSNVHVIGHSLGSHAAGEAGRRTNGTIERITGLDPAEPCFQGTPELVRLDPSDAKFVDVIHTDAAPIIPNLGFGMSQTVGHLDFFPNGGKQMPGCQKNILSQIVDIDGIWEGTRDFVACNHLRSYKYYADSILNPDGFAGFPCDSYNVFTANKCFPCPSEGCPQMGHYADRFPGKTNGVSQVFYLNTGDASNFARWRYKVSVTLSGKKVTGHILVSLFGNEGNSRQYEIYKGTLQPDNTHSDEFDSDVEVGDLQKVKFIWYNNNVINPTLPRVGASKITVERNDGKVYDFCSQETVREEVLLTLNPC

B1: pancreatic lipase (Sus scrofa) (protein)
chain: T1 sequence (P00591 1-450)

Key:
pancreatic lipase = target: T1, pancreatic lipase; experiment: 4-NPB hydrolysis assay; assay type: biochemical
[1] = substrate: CCCC(=O)Oc1ccc([N+](=O)[O-])cc1; experiment: Michaelis-Menten kinetics; assay type: biochemical, Sus scrofa

| Molecule | IC50 (pancreatic lipase) [µM] | Km [1] [µM] | Vmax [1] [µmol/min/mg] |
| --- | --- | --- | --- |
| O=c1c(O)cc([C@H]2Oc3cc(O)cc(O)c3C[C@H]2O)cc2c([C@H]3Oc4cc(O)cc(O)c4C[C@H]3O)cc(O)c(O)c12 [TF, Theaflavin] | > 10 | – | – |
| B1 | – | 149.3 ± 24.2 | 1.51e-05 ± 1e-06 |
